Drawing on publication PMC6218115 (2018), this text covers Kd for 3 molecules.

Non-standard residues stand in square brackets, D forms with d. No end group written: not given here.

For test [1], the target named is alpha-1-acid glycoprotein (AGP) (Homo sapiens, UniProt P02763). Nature of the test: TRANSIL XL AGP bead binding with liquid scintillation counting.
In test [2] the target is human serum albumin (HSA) (Homo sapiens, UniProt P02768). Briefly: TRANSIL XL HSA bead binding with liquid scintillation counting.

alpha-1-acid glycoprotein (AGP), sequence (P02763 19-201): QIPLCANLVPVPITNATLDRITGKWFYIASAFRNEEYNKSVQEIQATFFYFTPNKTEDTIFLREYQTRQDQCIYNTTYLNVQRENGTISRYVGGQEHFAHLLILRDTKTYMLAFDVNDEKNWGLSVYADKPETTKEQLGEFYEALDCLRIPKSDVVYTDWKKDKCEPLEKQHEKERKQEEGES

B1: cANK6r (peptide)
chain: cyclo([dR][dK][dR][dI][dR][dL][dV][dT][dK][dK][dK][dR][dR])
modifications: also: 3H-labelled tracer
For orientation: Kd means the concentration at which binding is half-saturated. With B1, the Kd stood at 280 nM in test [1] and 599 µM in test [2].

B2: ANK6 (peptide)
chain: [dR][dK][dR][dI][dR][dL][dV][dT][dK][dK][dK][dR]-NH2
modifications: also: 3H-labelled tracer
B2 yielded an equilibrium dissociation constant (Kd) in test [1] of 290 nM. In other words, the sub-micromolar range.

B3: tANK6 (peptide)
chain: [dR][dK][dR][dI][dR][dL][dV][dT][dK][dK][dK][dR][dR][dK][dR][dI][dR][dL][dV][dT][dK][dK][dK][dR]-NH2
modifications: also: 3H-labelled tracer
As for B3, the Kd in test [1] amounted to 60 nM; in test [2], 138 µM.
